# Test results reported in IntAct's records for PubMed 25737013.
# B1: Splicing factor 3B subunit 2 (Homo sapiens), Q13435 (parent)
# chain: MATEHPEPPKAELQLPPPPPPGHYGAWAAQELQAKLAEIGAPIQGNREELVERLQSYTRQTGIVLNRPVLRGEDGDKAAPPPMSAQLPGIPMPPPPLGLPPLQPPPPPPPPPPGLGLGFPMAHPPNLGPPPPLRVGEPVALSEEERLKLAQQQAALLMQQEERAKQQGDHSLKEHELLEQQKRAAVLLEQERQQEIAKMGTPVPRPPQDMGQIGVRTPLGPRVAAPVGPVGPTPTVLPMGAPVPRPRGPPPPPGDENREMDDPSVGPKIPQALEKILQLKESRQEEMNSQQEEEEMETDARSSLGQSASETEEDTVSVSKKEKNRKRRNRKKKKKPQRVRGVSSESSGDREKDSTRSRGSDSPAADVEIEYVTEEPEIYEPNFIFFKRIFEAFKLTDDVKKEKEKEPEKLDKLENSAAPKKKGFEEEHKDSDDDSSDDEQEKKPEAPKLSKKKLRRMNRFTVAELKQLVARPDVVEMHDVTAQDPKLLVHLKATRNSVPVPRHWCFKRKYLQGKRGIEKPPFELPDFIKRTGIQEMREALQEKEEQKTMKSKMREKVRPKMGKIDIDYQKLHDAFFKWQTKPKLTIHGDLYYEGKEFETRLKEKKPGDLSDELRISLGMPVGPNAHKVPPPWLIAMQRYGPPPSYPNLKIPGLNSPIPESCSFGYHAGGWGKPPVDETGKPLYGDVFGTNAAEFQTKTEEEEIDRTPWGELEPSDEESSEEEEEEESDEDKPDETGFITPADSGLITPGGFSSVPAGMETPELIELRKKKIEEAMDGSETPQLFTVLPEKRTATVGGAMMGSTHIYDMSTVMSRKGPAPELQGVEVALAPEELELDPMAMTQKYEEHVREQQAQVEKEDFSDMVAEHAAKQKQKKRKAQPQDSRGGSKKYKEFKF
# partner: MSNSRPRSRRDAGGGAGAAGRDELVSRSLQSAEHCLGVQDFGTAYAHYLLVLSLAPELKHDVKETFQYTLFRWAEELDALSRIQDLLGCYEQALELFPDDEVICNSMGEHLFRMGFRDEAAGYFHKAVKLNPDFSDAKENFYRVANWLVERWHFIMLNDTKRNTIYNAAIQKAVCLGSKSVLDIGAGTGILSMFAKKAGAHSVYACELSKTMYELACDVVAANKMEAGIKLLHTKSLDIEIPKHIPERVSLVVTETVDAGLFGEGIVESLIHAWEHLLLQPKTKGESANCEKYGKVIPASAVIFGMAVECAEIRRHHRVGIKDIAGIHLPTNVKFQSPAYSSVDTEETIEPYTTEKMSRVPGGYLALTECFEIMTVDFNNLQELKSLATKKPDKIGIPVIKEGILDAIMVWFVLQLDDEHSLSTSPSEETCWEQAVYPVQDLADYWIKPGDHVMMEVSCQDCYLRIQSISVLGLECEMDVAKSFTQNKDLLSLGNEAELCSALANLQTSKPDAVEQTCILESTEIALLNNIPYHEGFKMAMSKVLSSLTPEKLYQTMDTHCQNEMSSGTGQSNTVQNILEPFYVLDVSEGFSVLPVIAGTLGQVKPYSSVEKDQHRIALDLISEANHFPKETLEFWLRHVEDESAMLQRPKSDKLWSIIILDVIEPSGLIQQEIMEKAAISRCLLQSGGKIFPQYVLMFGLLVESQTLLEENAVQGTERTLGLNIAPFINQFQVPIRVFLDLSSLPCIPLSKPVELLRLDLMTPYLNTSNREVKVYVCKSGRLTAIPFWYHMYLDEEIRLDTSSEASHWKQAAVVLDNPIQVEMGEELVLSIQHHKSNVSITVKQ
# B2: Splicing factor 3B subunit 2 (Homo sapiens), Q13435 (parent)
# chain: B1 chain
# B3: Protein arginine N-methyltransferase 9 (Homo sapiens), Q6P2P2 (parent)
# chain: B1 partner
# Variants of: B1
# Conditions: with anm9_human PRMT9, Q6P2P2
row,Variant,effect of a mutation on the interaction
1,R471K,with no effect
2,R455K;R456K;R459K,with no effect
3,R495K,with no effect

# More lines, now with the values ahead:
row,effect of a mutation on the interaction,Variant
1,with no effect,R502K
2,with no effect,R537K
3,with no effect,R530K
4,with no effect,R515K

# Variants of: B1
# Conditions: with anm9_human PRMT9, Q6P2P2
# Remark: another data set of the same source
row,effect of a mutation on the interaction,Variant
1,with no effect,R508K

# Variants of: B2
# Conditions: with smn_human SMN1, Q16637
# Chain of smn_human SMN1, Q16637 (Q16637 whole entry): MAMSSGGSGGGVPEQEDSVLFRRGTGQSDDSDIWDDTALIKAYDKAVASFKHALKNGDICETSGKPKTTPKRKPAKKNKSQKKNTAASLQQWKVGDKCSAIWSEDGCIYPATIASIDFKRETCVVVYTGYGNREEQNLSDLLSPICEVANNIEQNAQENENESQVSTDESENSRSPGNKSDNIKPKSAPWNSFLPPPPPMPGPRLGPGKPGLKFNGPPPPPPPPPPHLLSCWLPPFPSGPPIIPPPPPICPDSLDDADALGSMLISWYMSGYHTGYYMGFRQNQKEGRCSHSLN
row,effect of a mutation on the interaction,Variant
1,disrupting interaction strength,R508K

# Variants of: B3
# Conditions: with sf3b2_human SF3B2, Q13435
row,effect of a mutation on the interaction,Variant
1,disrupting interaction strength,L182A;D183A;I184A;G185A
